Measurements published in the supplement of paper PMC9112550, “Optimization of the antimicrobial peptide Bac7 by deep mutational scanning” (BMC Biology, 2022).

Test system: Escherichia coli TOP10
Test: shrunken log2 fold change of peptide-encoding DNA abundance (4.5 h post-induction vs induction); higher = less antimicrobial activity (less host growth inhibition)
Settings: time post-induction: 4.5 h; library: site-saturation at positions 5, 18, 19, 20
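Note: peptides expressed intracellularly from a pBAD plasmid library in pooled LB shake-flask culture, induced with 0.3% L-arabinose, DNA abundance read by NGS, three biological replicates, DESeq2 with apeglm shrinkage.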

Row | Sequence | shrunken log2 fold change
1 | RRIRERPPRLPRPRPRPFWIPRP | -0.165
2 | RRIRERPPRLPRPRPRPFWYPRP | -0.000951
3 | RRIRERPPRLPRPRPRPGALPRP | 0.122
4 | RRIRERPPRLPRPRPRPGAWPRP | -0.0396
5 | RRIRERPPRLPRPRPRPGCHPRP | -0.0878
6 | RRIRERPPRLPRPRPRPGDSPRP | -1.02
7 | RRIRERPPRLPRPRPRPGDWPRP | 0.212
8 | RRIRERPPRLPRPRPRPGFFPRP | -0.191
9 | RRIRERPPRLPRPRPRPGGAPRP | 0.276
10 | RRIRERPPRLPRPRPRPGGTPRP | -0.215
11 | RRIRERPPRLPRPRPRPGKAPRP | -0.0498
12 | RRIRERPPRLPRPRPRPGMCPRP | 0.248
13 | RRIRERPPRLPRPRPRPGMFPRP | -0.837
14 | RRIRERPPRLPRPRPRPGMIPRP | -0.439
15 | RRIRERPPRLPRPRPRPGMYPRP | -0.0383
16 | RRIRERPPRLPRPRPRPGNFPRP | -0.0564
17 | RRIRERPPRLPRPRPRPGPEPRP | 0.129
18 | RRIRERPPRLPRPRPRPGPGPRP | 0.268
19 | RRIRERPPRLPRPRPRPGPNPRP | -0.106
20 | RRIRERPPRLPRPRPRPGPRPRP | 0.537
21 | RRIRERPPRLPRPRPRPGPWPRP | 0.186
22 | RRIRERPPRLPRPRPRPGRFPRP | 0.0216
23 | RRIRERPPRLPRPRPRPGSPPRP | -0.0668
24 | RRIRERPPRLPRPRPRPGTAPRP | -0.0769
25 | RRIRERPPRLPRPRPRPGTFPRP | -0.378

Row | Sequence | shrunken log2 fold change
26 | RRIRERPPRLPRPRPRPGTTPRP | -0.433
27 | RRIRERPPRLPRPRPRPGTVPRP | -0.973
28 | RRIRERPPRLPRPRPRPGVLPRP | -0.177
29 | RRIRERPPRLPRPRPRPGVPPRP | 0.149
30 | RRIRERPPRLPRPRPRPGVVPRP | -0.0414
31 | RRIRERPPRLPRPRPRPGWAPRP | 0.487
32 | RRIRERPPRLPRPRPRPGWKPRP | 0.015
33 | RRIRERPPRLPRPRPRPGWVPRP | 0.381
34 | RRIRERPPRLPRPRPRPGYMPRP | -0.172
35 | RRIRERPPRLPRPRPRPHADPRP | 0.0454
36 | RRIRERPPRLPRPRPRPHAFPRP | -0.0188
37 | RRIRERPPRLPRPRPRPHCSPRP | -0.279
38 | RRIRERPPRLPRPRPRPHDYPRP | 0.0456
39 | RRIRERPPRLPRPRPRPHFTPRP | -0.246
40 | RRIRERPPRLPRPRPRPHHTPRP | -0.268
41 | RRIRERPPRLPRPRPRPHINPRP | -0.713
42 | RRIRERPPRLPRPRPRPHKQPRP | -0.0572
43 | RRIRERPPRLPRPRPRPHKYPRP | -0.902
44 | RRIRERPPRLPRPRPRPHMAPRP | -0.0803
45 | RRIRERPPRLPRPRPRPHMTPRP | 0.0464
46 | RRIRERPPRLPRPRPRPHNGPRP | 0.0109
47 | RRIRERPPRLPRPRPRPHPFPRP | -0.235
48 | RRIRERPPRLPRPRPRPHPMPRP | -0.334
49 | RRIRERPPRLPRPRPRPHWTPRP | -0.0453
50 | RRIRERPPRLPRPRPRPIACPRP | -0.23

Row | Sequence | shrunken log2 fold change
51 | RRIRERPPRLPRPRPRPIAFPRP | 0.0152
52 | RRIRERPPRLPRPRPRPIDMPRP | -0.123
53 | RRIRERPPRLPRPRPRPIFDPRP | -0.349
54 | RRIRERPPRLPRPRPRPIFIPRP | -0.508
55 | RRIRERPPRLPRPRPRPIGDPRP | -0.942
56 | RRIRERPPRLPRPRPRPIGKPRP | 0.133
57 | RRIRERPPRLPRPRPRPIGTPRP | -0.976
58 | RRIRERPPRLPRPRPRPIIWPRP | -0.204
59 | RRIRERPPRLPRPRPRPIKGPRP | -0.0123
60 | RRIRERPPRLPRPRPRPIKLPRP | -0.481
61 | RRIRERPPRLPRPRPRPILEPRP | -0.0533
62 | RRIRERPPRLPRPRPRPILQPRP | -0.518
63 | RRIRERPPRLPRPRPRPIMNPRP | -1.02
64 | RRIRERPPRLPRPRPRPIQEPRP | -0.0167
65 | RRIRERPPRLPRPRPRPIQIPRP | -0.103
66 | RRIRERPPRLPRPRPRPIREPRP | 0.0256
67 | RRIRERPPRLPRPRPRPISFPRP | -0.441
68 | RRIRERPPRLPRPRPRPITLPRP | 0.0653
69 | RRIRERPPRLPRPRPRPITTPRP | -0.03
70 | RRIRERPPRLPRPRPRPIVWPRP | 0.0693
71 | RRIRERPPRLPRPRPRPIWCPRP | 0.000213
72 | RRIRERPPRLPRPRPRPIWIPRP | -0.222
73 | RRIRERPPRLPRPRPRPIWKPRP | -0.644
74 | RRIRERPPRLPRPRPRPIYAPRP | -0.086
75 | RRIRERPPRLPRPRPRPKCGPRP | 0.0971

Row | Sequence | shrunken log2 fold change
76 | RRIRERPPRLPRPRPRPKETPRP | 0.0319
77 | RRIRERPPRLPRPRPRPKGLPRP | 0.0211
78 | RRIRERPPRLPRPRPRPKHEPRP | -0.205
79 | RRIRERPPRLPRPRPRPKHGPRP | -0.017
80 | RRIRERPPRLPRPRPRPKKHPRP | -0.55
81 | RRIRERPPRLPRPRPRPKMCPRP | -0.149
82 | RRIRERPPRLPRPRPRPKPIPRP | -0.128
83 | RRIRERPPRLPRPRPRPKREPRP | 0.118
84 | RRIRERPPRLPRPRPRPKSFPRP | 0.0203
85 | RRIRERPPRLPRPRPRPKVFPRP | 0.0354
86 | RRIRERPPRLPRPRPRPKVSPRP | -0.205
87 | RRIRERPPRLPRPRPRPKWEPRP | 0.0179
88 | RRIRERPPRLPRPRPRPKWPPRP | 0.016
89 | RRIRERPPRLPRPRPRPKYMPRP | 0.822
90 | RRIRERPPRLPRPRPRPLAFPRP | -0.0552
91 | RRIRERPPRLPRPRPRPLATPRP | 0.133
92 | RRIRERPPRLPRPRPRPLCVPRP | -0.307
93 | RRIRERPPRLPRPRPRPLDEPRP | -0.396
94 | RRIRERPPRLPRPRPRPLDGPRP | -0.0344
95 | RRIRERPPRLPRPRPRPLEDPRP | -0.157
96 | RRIRERPPRLPRPRPRPLEFPRP | -0.542
97 | RRIRERPPRLPRPRPRPLELPRP | 0.086
98 | RRIRERPPRLPRPRPRPLFMPRP | -0.222
99 | RRIRERPPRLPRPRPRPLFVPRP | -0.799
100 | RRIRERPPRLPRPRPRPLGCPRP | -0.166

Row | Sequence | shrunken log2 fold change
101 | RRIRERPPRLPRPRPRPLGDPRP | -0.0627
102 | RRIRERPPRLPRPRPRPLHFPRP | -0.141
103 | RRIRERPPRLPRPRPRPLHRPRP | -0.0862
104 | RRIRERPPRLPRPRPRPLIMPRP | -0.781
105 | RRIRERPPRLPRPRPRPLIRPRP | -0.0588
106 | RRIRERPPRLPRPRPRPLIWPRP | -0.364
107 | RRIRERPPRLPRPRPRPLMLPRP | -0.813
108 | RRIRERPPRLPRPRPRPLMMPRP | -0.263
109 | RRIRERPPRLPRPRPRPLMQPRP | 0.0114
110 | RRIRERPPRLPRPRPRPLMSPRP | -0.406
111 | RRIRERPPRLPRPRPRPLNDPRP | -0.272
112 | RRIRERPPRLPRPRPRPLNGPRP | -0.254
113 | RRIRERPPRLPRPRPRPLNIPRP | -0.662
114 | RRIRERPPRLPRPRPRPLNLPRP | -0.312
115 | RRIRERPPRLPRPRPRPLPPPRP | 0.124
116 | RRIRERPPRLPRPRPRPLQIPRP | -0.0796
117 | RRIRERPPRLPRPRPRPLRTPRP | 0.00359
118 | RRIRERPPRLPRPRPRPLRYPRP | -0.0652
119 | RRIRERPPRLPRPRPRPLVMPRP | -0.0346
120 | RRIRERPPRLPRPRPRPLVQPRP | 0.0736
121 | RRIRERPPRLPRPRPRPLWPPRP | 0.0539
122 | RRIRERPPRLPRPRPRPLYHPRP | -0.419
123 | RRIRERPPRLPRPRPRPLYSPRP | -0.54
124 | RRIRERPPRLPRPRPRPMAAPRP | 0.421
125 | RRIRERPPRLPRPRPRPMAVPRP | 0.19

Row | Sequence | shrunken log2 fold change
126 | RRIRERPPRLPRPRPRPMHDPRP | -0.286
127 | RRIRERPPRLPRPRPRPMIAPRP | 0.121
128 | RRIRERPPRLPRPRPRPMIPPRP | -0.0272
129 | RRIRERPPRLPRPRPRPMKIPRP | 0.0286
130 | RRIRERPPRLPRPRPRPMKSPRP | -0.163
131 | RRIRERPPRLPRPRPRPMLCPRP | 0.05
132 | RRIRERPPRLPRPRPRPMNDPRP | -0.0199
133 | RRIRERPPRLPRPRPRPMNFPRP | -0.192
134 | RRIRERPPRLPRPRPRPMNQPRP | -0.67
135 | RRIRERPPRLPRPRPRPMQFPRP | -0.248
136 | RRIRERPPRLPRPRPRPMSLPRP | 0.0379
137 | RRIRERPPRLPRPRPRPMSYPRP | -0.00931
138 | RRIRERPPRLPRPRPRPMTKPRP | -0.0224
139 | RRIRERPPRLPRPRPRPMWAPRP | -0.122
140 | RRIRERPPRLPRPRPRPMYAPRP | -0.246
141 | RRIRERPPRLPRPRPRPMYKPRP | -0.0299
142 | RRIRERPPRLPRPRPRPNAPPRP | 0.0774
143 | RRIRERPPRLPRPRPRPNCNPRP | -0.848
144 | RRIRERPPRLPRPRPRPNDAPRP | -0.19
145 | RRIRERPPRLPRPRPRPNFAPRP | 0.387
146 | RRIRERPPRLPRPRPRPNFKPRP | -0.181
147 | RRIRERPPRLPRPRPRPNGRPRP | -0.033
148 | RRIRERPPRLPRPRPRPNHKPRP | -0.823
149 | RRIRERPPRLPRPRPRPNHYPRP | -1.57
150 | RRIRERPPRLPRPRPRPNINPRP | -1.05
